Laboratory results as given in patent US20100015637A1 (AbbVie / Abbott, published 2010).
Blank lines part the entries; values can stand above or below the molecule they belong to.

Assays:
[1] = target: human PlGF-1 comprising amino acids 1-137 produced in human embryonic kidney cells (human) (UniProt P49763); test: Format 2 …, capture MAb264, detection Pb264; sFlt-1 613 pmol/L (ratio 20)
[2] = target: human PlGF-1 comprising amino acids 1-137 produced in human embryonic kidney cells (human) (UniProt P49763); test: Format 1 …, capture 2-826-335, detection 1-255-713; sFlt-1 1533 pmol/L (ratio 50)
[3] = target: human PlGF-1 comprising amino acids 1-137 produced in human embryonic kidney cells (human) (UniProt P49763); test: Format 2 …, capture MAb264, detection Pb264; sFlt-1 9200 pmol/L (ratio 300)
[4] = target: human PlGF-1 comprising amino acids 1-137 produced in human embryonic kidney cells (human) (UniProt P49763); test: Format 1 …, capture 2-826-335, detection 1-255-713; sFlt-1 920 pmol/L (ratio 30)
[5] = target: human PlGF-1 comprising amino acids 1-137 produced in human embryonic kidney cells (human) (UniProt P49763); test: Format 1 …, capture 2-826-335, detection 1-255-713; sFlt-1 307 pmol/L (ratio 10)
[6] = target: T1, human PlGF-1 comprising amino acids 1-137 produced in human embryonic kidney cells (human, UniProt P49763 19-221); test: … sandwich, capture MAb255, detection pAb264; antigen 1500 pg/mL
T1 construct: Mature human PlGF-1 with 6xHis tag; also called HEK (1-137); full length HEK human PlGF-1 (1-137)
T1 sequence: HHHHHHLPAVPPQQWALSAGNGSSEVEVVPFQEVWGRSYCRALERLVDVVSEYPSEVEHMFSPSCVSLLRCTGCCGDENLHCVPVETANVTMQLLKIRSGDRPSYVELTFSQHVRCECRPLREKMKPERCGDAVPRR

[7] = target: T2, human PlGF-1 fragment (comprising amino acids 17-131) produced in human embryonic kidney cells (human, UniProt P49763 35-221); test: as above
T2 sequence: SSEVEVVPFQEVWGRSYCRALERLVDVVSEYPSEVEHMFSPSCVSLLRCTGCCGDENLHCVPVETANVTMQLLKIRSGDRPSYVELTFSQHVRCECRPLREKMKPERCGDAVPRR

[8] = target: T3, CHO human PlGF-1 fragment (comprising amino acids 17-131; ATCC PTA-8540) (human, UniProt P49763 35-221); test: as above
T3 sequence: T2 sequence

[9] = target: T4, CHO human PlGF-1 comprising amino acids 1-137 (human PlGF-1-His (1-131), CHO 6305) (human, UniProt P49763 19-221, N-glycans at N21 (completely glycosylated) and N89 (partially glycosylated)); test: as above
T4 construct: Mature human PlGF-1 with 6xHis tag (137 amino acids); also called CHO (1-137)
T4 sequence: T1 sequence

[10] = target: recombinant human PlGF-1 (comprising amino acids 1-131) expressed in E. coli (R&D Systems) (human) (UniProt P49763); test: … sandwich, capture MAb255, detection pAb264; antigen 60 pg/mL
[11] = target: recombinant human PlGF-1 (comprising amino acids 1-131) expressed in E. coli (R&D Systems) (human) (UniProt P49763); test: … sandwich, capture MAb826, detection pAb264; antigen 0 pg/mL (blank)
[12] = target: T1, human PlGF-1 comprising amino acids …; test: as above
[13] = target: T2, human PlGF-1 fragment (comprising amino …); test: as above
[14] = target: T3, CHO human PlGF-1 fragment (comprising …); test: as above
[15] = target: T4, CHO human PlGF-1 comprising amino acids …; test: as above
[16] = target: T1, human PlGF-1 comprising amino acids …; test: … sandwich, capture MAb826, detection pAb264; antigen 60 pg/mL
[17] = target: T2, human PlGF-1 fragment (comprising amino …); test: as above
[18] = target: T3, CHO human PlGF-1 fragment (comprising …); test: as above
[19] = target: T4, CHO human PlGF-1 comprising amino acids …; test: as above

% Inhibition [1]: 89.5%
PlGF-1 Measured [1]: 82.9 pg/mL
% Inhibition [2]: 92.5%
PlGF-1 Measured [2]: 76.6 pg/mL
% Inhibition [3]: 97.5%
PlGF-1 Measured [3]: 20 pg/mL
% Inhibition [4]: 90.7%
PlGF-1 Measured [4]: 95.1 pg/mL
% Inhibition [5]: 80.7%
PlGF-1 Measured [5]: 197 pg/mL
Molecule: native sFlt-1, isolated from human placental tissue (from UniProt P17948 27-687) (receptor)

RLU [6]: 2.14e+06 RLU
RLU [7]: 1.62e+06 RLU
RLU [8]: 1.25e+06 RLU
RLU [9]: 1.05e+06 RLU
RLU [10]: 161000 RLU
B1: monoclonal antibody 1-255-713 (produced by murine hybridoma cell line 1-255-713, ATCC PTA-8536) (antibody, mouse IgG2a, V domains shown)
VH: QVHLQQSGAELMKPGASVKISCKATGYTFSSYWIEWVKQRPGHGLEWIGEILPGSVSNNFNEKFKDKATLTADPSSNTAYIQVSSLTSEDSAVYYCARSTGFYYGGNYFDHWGQGTTLAVSS
VL: DVVMTQTPLSLPVSPGDQASISCRSSQSLVHSNGHTYLHWYLQKPGQSPKLLIYKVSNRFSGVPDRVSGSGSGTDFTLKISRVEAEDLGVYFCSQSTHVPPTFGGGTKLEIKR
notes: also called MAb255

RLU [11]: 6410 RLU
RLU [12]: 6530 RLU
RLU [13]: 6590 RLU
RLU [14]: 6680 RLU
RLU [15]: 6600 RLU
RLU [16]: 47700 RLU
RLU [17]: 36900 RLU
RLU [18]: 28200 RLU
RLU [19]: 22200 RLU
B2: monoclonal antibody 2-826-335 (produced by murine hybridoma cell line 2-826-335, ATCC PTA-8539) (antibody, mouse IgG1, V domains shown)
VH: QVQLKQSGPGLVQPSQSLSITCTVSGFSLTTYGIHWVRQSPGKGLEWLGVMWSGGDTDYDAAFISRLSISKDNSKSQVFFKMNSLQANDTGIYYCARYRFYGMDYWGQGTSVTVSS
VL: AIQMTQSSSSFSVSLGDRVTITCKASEDIYNRFAWYQQKPGNAPRLLISGAASLEAGVPSRFSGSGSGQDYTLSITSLQTEDVATYYCQQYWSTPWTFGGGTKLEIKR
notes: also called MAb826
